From the supplement of paper PMC10567573

B1: ZNF263 (parent)
chain: FGGNPRFLSLHRAHLGEEAHKCLE
B2: WSB1 (parent)
chain: FSHDGLHVASLADDKMVRFWRIDE

Variants of: B1
Assay: protein stability index of a GFP-peptide fusion (GPS, HEK-293T) (PSI 1-6); higher = more stable
Conditions: c terminus: a fixed tail appended
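Also: lentivirally expressed fusions sorted by FACS into six bins by GFP to DsRed ratio, PSI derived from sequencing read proportions per bin multiplied by bin number.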

Protein stability index of substitutions, site by site:
L8: W 3.8 | D 3.1 | C 1.4 | H 1.86 | P 2.01 | K 2.53 | V 2.5 | A 2.43 | R 2.27 | Q 1.66 | I 1.41 | F 2.16 | T 2.77 | N 2.25 | M 2.25 | S 2.03 | E 2.54 | G 2.1 | Y 3.2
G3: E 2.16 | P 2.13 | L 2.5 | I 3.04 | R 2.48 | W 2.14 | F 2.69 | S 2.25 | K 2.36 | Q 1.53 | M 2.05 | V 2.83 | Y 1.78 | D 3.36 | N 2.24 | H 2.51 | T 2.17 | A 1.91 | C 2
G2: Q 1.38 | A 1.59 | M 2.35 | C 1.61 | K 2.87 | N 2.22 | W 2.24 | S 1.74 | L 2.25 | H 1.79 | F 2.55 | Y 2.32 | R 3.66 | P 2.13 | T 3.64 | E 3.12 | D 3.68 | I 1.64
S9: H 1.8 | P 2.1 | A 1.52 | I 2.59 | Q 2.9 | E 1.97 | N 1.55 | K 1.64 | F 2.14 | T 1.8 | C 2.16 | M 1.15 | L 2.25 | R 1.87 | D 1.34
N4: I 2.24 | L 2.32 | T 1.66 | K 2.31 | F 2.15 | G 1.56 | R 2.46 | Q 1.51 | Y 1.53 | A 2.87 | C 1.62 | W 2.37 | H 1.97 | V 2.44 | M 1.03 | P 2.61 | S 1.14 | D 2.13 | E 2.26
P5: L 1.69 | V 1.96 | D 1.35 | H 2.17 | C 1.49 | E 2.19 | A 2.03 | S 1.93 | N 3.16 | Y 1.57 | I 1.52 | M 1.96 | T 2.17 | K 1.56 | Q 2.2 | G 1.64 | W 1.96 | F 1.62 | R 2.01
F1: W 1.99 | C 2.63 | Q 3.38 | T 3.48 | A 3.45 | P 3.7 | R 3.69 | N 3.94 | H 3.19 | K 2.95 | D 4.17 | I 3.51 | E 3.61 | Y 1.47 | L 3.18 | S 3.69 | G 3.98 | V 3.87 | M 3.81
F7: V 2.64 | G 2.63 | E 4 | L 2.56 | Y 2.04 | Q 3.49 | A 2.79 | T 3.22 | I 2.19 | N 3.42 | P 2.71 | H 2.56 | D 3.51 | M 2.42 | R 3.15 | K 3.58 | S 3.57 | C 2.31
R6: A 3.22 | N 1.89 | C 3.09 | D 1.83 | M 2.5 | I 2.58 | Q 1.82 | G 1.74 | W 5.27 | T 2.89 | K 2.77 | V 3.33 | P 2.73 | L 2.62 | S 1.79 | E 1.3 | H 2.37 | F 2.25

Variants of: B2
Assay: as above
Conditions: c terminus: a fixed tail appended

Protein stability index: each site, then its substitutions
A9: T 1.25 | M 1.79 | C 2.51 | K 1.67 | H 1.7 | D 1.71
H3: D 2.2 | W 1.62 | P 1.67 | V 1.11 | N 1.92 | L 1.37
E24: H 1.16 | A 3.01 | K 1.84 | Y 1.97 | P 1.86 | T 1.62 | I 2.28 | L 2.85 | N 3
L6: C 1.55 | Q 2.33 | H 2.27 | P 1.63 | N 3.26 | A 1.98 | F 2.43 | M 2.41
S2: F 1.97 | E 2.34 | N 2.78
D14: M 1.97 | Q 1.78 | R 1.95 | N 2.03 | F 2.93 | K 1.96 | C 2.36
K15: A 2.18 | G 1.69 | F 1.35 | V 2.78 | T 1.44 | L 2.49 | D 2.33 | I 1.49 | Q 1.04 | W 1.67
R21: Y 3.45 | H 2.42 | E 1.8 | N 2.15 | I 3.26 | L 1.59
F19: A 2.27 | Y 2.33 | M 3.75 | S 2.42 | T 3.13 | D 3.37 | P 2.65 | K 2.38 | N 2.62 | Q 2.03 | E 3.92 | G 2.38 | C 2.32
A12: D 2.32 | W 1.23 | I 1.93
D23: M 1.73 | P 3.58 | R 1.45 | Y 1.34 | T 1.33 | N 1.8 | F 2.1 | H 1.85 | W 2.11
I22: G 3.54 | P 2.64 | S 1.66 | T 1.65 | E 2.54
H7: Q 1.08 | A 1.58 | L 1 | F 2.87 | D 3.61 | G 1.4 | T 1.65
G5: D 3.16 | E 2.67 | Y 1.27 | N 3.01
D13: L 2.13 | C 1.02 | K 1.88 | P 1.56 | T 1.36
W20: E 3.18 | A 2.48 | D 3.51 | H 2.67 | C 2.42
V8: L 1.53 | M 1.03 | R 1.84 | D 1.88 | E 2.59 | C 1.38 | G 1.75 | A 1.94
F1: Y 2.49 | G 3.43 | W 2.3 | K 3.4 | I 2.89 | E 4.03 | S 3.33
R18: L 1.32 | Q 2.01 | Y 1.89 | G 1.26 | S 1.31 | E 1.92 | A 1.41 | K 2.12
D4: L 1.53 | T 2.1 | P 2 | N 2
S10: P 1.63 | L 1.87 | F 3.47 | A 1.74 | I 1.69 | G 1.65 | N 1.75 | K 2.84
M16: G 1.83 | T 1.16 | E 1.88 | P 2.05 | Y 1.66 | S 2.12 | W 1.57 | N 1.36 | R 2.76 | K 2.23
L11: D 2.06 | F 2.5 | N 1.78 | I 2.2 | V 2.03 | Q 1.67
V17: E 2.75 | P 2.42 | N 1.5 | K 1.85 | Q 2.14 | L 1.27 | H 1.51 | R 2.03 | G 1.03 | D 1.96 | S 1.54 | C 3.55 | T 1.56
